Reference: publication PMC3781937 (Molecular microbiology, 2013)

T1: YaaT (His6-SUMO tag removed, in the co-purified complex) (Bacillus subtilis, UniProt P37541 1-275)
T1 sequence (looked up): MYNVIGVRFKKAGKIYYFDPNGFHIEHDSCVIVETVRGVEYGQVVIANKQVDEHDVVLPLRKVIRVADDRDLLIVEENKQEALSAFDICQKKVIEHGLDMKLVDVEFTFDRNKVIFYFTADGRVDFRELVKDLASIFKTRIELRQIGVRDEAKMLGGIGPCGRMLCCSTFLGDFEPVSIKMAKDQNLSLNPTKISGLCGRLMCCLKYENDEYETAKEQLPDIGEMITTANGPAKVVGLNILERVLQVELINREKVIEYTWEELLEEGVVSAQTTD

T2: T18-Spo0F (Bacillus subtilis, UniProt P06628 1-124)
T2 sequence (looked up): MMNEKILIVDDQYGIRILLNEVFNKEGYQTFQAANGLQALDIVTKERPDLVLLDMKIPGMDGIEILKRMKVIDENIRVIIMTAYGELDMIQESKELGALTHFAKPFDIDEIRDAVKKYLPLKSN

B1: YmcA (GST tag removed) (natural protein, Bacillus subtilis, UniProt O31779 1-143, looked up)
chain: MTLYSKKDIVQQARNLAKMISETEEVDFFKRAEAQINENDKVSTIVNQIKALQKQAVNLKHYEKHEALKQVEAKIDALQEELEEIPVIQEFRDSQMEVNDLLQLVAHTISNQVTNEIITSTGGDLLKGETGSKVKHSNNSCSL
B2: YmcA-T25 (natural protein, Bacillus subtilis, UniProt O31779 1-143, looked up)
chain: B1 chain
B3: YlbF (GST tag removed, in the co-purified complex) (natural protein, Bacillus subtilis, UniProt O34412 1-149, looked up)
chain: MYATMESVRLQSEAQQLAEMILQSETAENYRNCYKRLQEDEEAGRIIRSFIKIKEQYEDVQRFGKYHPDYREISRKMREIKRELDLNDKVADFKRAENELQSILDEVSVEIGTAVSEHVKVPTGNPYFDGLSSCGGGCGSGGSCGCKVS

Legend:
[1] = biological target: T1, YaaT (His6-SUMO tag removed, in the …); assay: SEC
[2] = biological target: B3; assay: SEC
T18-Spo0F = biological target: T2, T18-Spo0F; assay: two-hybrid
two-hybrid = biological target: the molecule itself; assay: two-hybrid

Q: B1 was tested. Which “stoichiometry N” value [1] did it give?
A: 2.2 fold

Q: What about the “stoichiometry N” value [2] of the same binder?
A: 2.2 fold

Q: B2 was tested. Which “β-galactosidase activity, ratio above the T18–T25 negative control” value (T18-Spo0F) did it give?
A: 11.3 ratio above the T18–T25 negative control

Q: What about the “β-galactosidase activity, ratio above the T18–T25 negative control” value (two-hybrid) of the same binder?
A: 48.3 ratio above the T18–T25 negative control

Q: Does B3 bind [1]?
A: binds
